From patent US7199218B1, “ICBP90 polypeptide and its fragments and polynucleotides coding for said polypeptides and applications for diagnosing and treating cancer” (Institut National de la Sante et de la Recherche Medicale …, priority 1999, dated 2007)

What was measured:
[1] = system: ICB DNA sequence (ICB1/ICB2 boxes of the human topoisomerase IIα promoter); assay: Gel retardation (acrylamide gel) binding of protein to 32P-labelled ICB oligonucleotides; conditions: 1 μg protein, 1 ng 32P-labelled oligonucleotide, competition with non-labelled oligonucleotides
Method: To test the ability of the 59 kDa protein to bind specifically to the ICB1 and/or ICB2 boxes, three tandem copies of ICB2 (ICB2X3, sequences described above) were labelled at the terminal end with 32 P phosphore using the T4 polynucleotide kinase (New England Biolabs) and […] (160 mCi/mmol, ICN Irvine, Calif., USA). To examine the specificity of the binding, oligonucleotides containing only one copy of the CCAAT box were synthesized:
The ICBP-59 protein (1 μg) was incubated with 1 ng of oligonucleotide and labelled at its terminal end by phosphorous ^32P in 12% glycerol, 12 mM HEPES-NaOH (pH 7.9), 60 mM KCl, 4 mM Tris-HCl (pH 7.9), 100 ng BSA, 0.6 mM DTT, and 100 ng poly(dI/dC) in 20 μl (Inouye et al., 1994). After a 30-minutes incubation at room temperature, the reaction mix was loaded in 6% polyacrylamide gels. In competition experiments, the quantity indicated of non-labelled oligonucleotides were added to the reaction mix 10 minutes before the addition of proteins. To examine the binding properties of ICBP90 with regard to the ICB2 box, we used the same protocol except that labelled oligonucleotide contained only one copy of the CCAAT sequence as described below:
Binding specificity was studied using a non-labelled nucleotide containing a GC box of the human topoisomerase IIa promoter: […]

[2] = target: T1, TIP60 (Tat Interactive Protein, 60 kDa) (Homo sapiens, UniProt Q92993); assay: Double-hybrid technique, protein-protein interaction; type: binding
T1 construct: expressed in transfected cells; own knowledge
T1 sequence (Q92993 whole entry, species assumed): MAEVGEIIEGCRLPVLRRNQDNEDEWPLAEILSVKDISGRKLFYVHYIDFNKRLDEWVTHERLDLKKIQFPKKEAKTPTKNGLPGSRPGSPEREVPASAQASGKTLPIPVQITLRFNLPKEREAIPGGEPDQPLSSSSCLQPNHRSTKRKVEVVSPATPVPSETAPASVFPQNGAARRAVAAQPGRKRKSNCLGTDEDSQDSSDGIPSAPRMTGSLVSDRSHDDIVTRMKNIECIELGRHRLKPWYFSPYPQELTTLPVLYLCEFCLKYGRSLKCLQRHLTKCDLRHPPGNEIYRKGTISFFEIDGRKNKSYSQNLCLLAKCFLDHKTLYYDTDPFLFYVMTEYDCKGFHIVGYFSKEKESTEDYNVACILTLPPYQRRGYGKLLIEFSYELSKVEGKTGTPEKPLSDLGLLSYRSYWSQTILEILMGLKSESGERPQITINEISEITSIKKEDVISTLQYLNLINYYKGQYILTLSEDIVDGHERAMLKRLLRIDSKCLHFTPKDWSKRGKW
Excerpt: The TIP60 protein has very recently been described as being a coactivator of the nuclear receptor, especially the receptor for the androgens (Brady M E et al., 1999).

B1: ICBP90: Inverted CCAAT Box Binding Protein of 90 kDa, 793 amino acids, SEQ ID No.2 (protein, listed as Homo sapiens)
chain: MWIQVRTMDGRQTHTVDSLSRLTKVEELRRKIQELFHVEPGLQRLFYRGKQMEDGHTLFDYEVRLNDTIQLLVRQSLVLPHSTKERDSELSDTDSGCCLGQSESDKSSTHGEAAAETDSRPADEDMWDETELGLYKVNEYVDARDTNMGAWFEAQVVRVTRKAPSRDEPCSSTSRPALEEDVIYHVKYDDYPENGVVQMNSRDVRARARTIIKWQDLEVGQVVMLNYNPDNPKERGFWYDAEISRKRETRTARELYANVVLGDDSLNDCRIIFVDEVFKIERPGEGSPMVDNPMRRKSGPSCKHCKDDVNRLCRVCACHLCGGRQDPDKQLMCDECDMAFHIYCLDPPLSSVPSEDEWYCPECRNDASEVVLAGERLRESKKNAKMASATSSSQRDWGKGMACVGRTKECTIVPSNHYGPIPGIPVGTMWRFRVQVSESGVHRPHVAGIHGRSNDGSYSLVLAGGYEDDVDHGNFFTYTGSGGRDLSGNKRTAEQSCDQKLTNTNRALALNCFAPINDQEGAEAKDWRSGKPVRVVRNVKGGKNSKYAPAEGNRYDGIYKVVKYWPEKGKSGFLVWRYLLRRDDDEPGPWTKEGKDRIKKLGLTMQYPEGYLEALANREREKENSKREEEEQQEGGFASPRTGKGKWKRKSAGGGPSRAGSPRRTSKKTKVEPYSLTAQQSSLIREDKSNAKLWNEVLASLKDRPASGSPFQLFLSKVEETFQCICCQELVFRPITTVCQHNVCKDCLDRSFRAQVFSCPACRYDLGRSYAMQVNQPLQTVLNQLFPGYGNGR
ability to bind specifically an ICB DNA sequence [1]: identical from top to bottom to that observed for ICBP-59 | interaction with TIP60 [2]: existence of interactions

B2: ICBP-59: 59 kDa C-terminal fragment, amino acids 263 to 793 of SEQ ID NO. 2 (protein, listed as Homo sapiens)
chain: DDSLNDCRIIFVDEVFKIERPGEGSPMVDNPMRRKSGPSCKHCKDDVNRLCRVCACHLCGGRQDPDKQLMCDECDMAFHIYCLDPPLSSVPSEDEWYCPECRNDASEVVLAGERLRESKKNAKMASATSSSQRDWGKGMACVGRTKECTIVPSNHYGPIPGIPVGTMWRFRVQVSESGVHRPHVAGIHGRSNDGSYSLVLAGGYEDDVDHGNFFTYTGSGGRDLSGNKRTAEQSCDQKLTNTNRALALNCFAPINDQEGAEAKDWRSGKPVRVVRNVKGGKNSKYAPAEGNRYDGIYKVVKYWPEKGKSGFLVWRYLLRRDDDEPGPWTKEGKDRIKKLGLTMQYPEGYLEALANREREKENSKREEEEQQEGGFASPRTGKGKWKRKSAGGGPSRAGSPRRTSKKTKVEPYSLTAQQSSLIREDKSNAKLWNEVLASLKDRPASGSPFQLFLSKVEETFQCICCQELVFRPITTVCQHNVCKDCLDRSFRAQVFSCPACRYDLGRSYAMQVNQPLQTVLNQLFPGYGNGR
ability to bind specifically an ICB DNA sequence [1]: can specifically bind an ICB DNA sequence
